Experimental data reported in patent publication US20090263380A1 (published 2009).

Assays:
[1] = target: T1, human monoclonal anti-C1 domain of Factor VIII antibody RHD5; experiment: SPR (BIAcore), RHD5 immobilized on CM5, 18B6 infused
T1 construct: also called RHD5 antibody; RHD5 Ab
Method: The binding kinetics of the anti-idiotypic antibody 18B6 to inhibitor RHD5 antibody was evaluated by use of the <<Surface plasmon resonance Biacore>> method using the Pharmacia Biosensor BIAcore (Pharmacia Biosensor AB, Uppsala, Sweden). The RHD5 antibodies were immobilized on the activated surface of a CM5 probe. The anti-idiotypic antibodies 18B6 were infused in different RHD5 concentrations immobilized on the surface of the probe. The association and dissociation constants were determined: […]

[2] = target: T1, human monoclonal anti-C1 domain of …; experiment: competition ELISA, 18B6 with RHD5 2 µg/ml, RHD5 binding to coated recFVIII
Method: Recombinant Factor VIII (recFVIII) (Baxter) at 2 μg/ml in a glycine buffer, 50 μl/well, was insolubilized, then left for 2 hours at room temperature. The RHD5 antibody (or an irrelevant IgG1) at 0.6 μg/ml final concentration was pre-incubated over 2 hours with the culture supernatants in a dilution 1/1, 1/2 and 1/4 in Magic Buffer. The wells were washed 3 times with a PBS/Tween buffer, then saturated with 100 μl/well of Magic Buffer (30 min at room temperature). Afterwards, the culture supernatant was incubated with 50 μl of RHD5 (or irrelevant IgG1) (2 hours at room temperature, Magic Buffer), then, 3 washings were performed. The RHD5 antibodies bound to insolubilized recFVIII were detected by addition of 50 μl/well of a mouse polyclonal human anti-IgG HRP-labelled (Southern Biotechnology) antibodies solution of 1 μg/ml in Magic Buffer. Three successive washings were carried out with PBS/Tween, then revelation carried out with a chromogen (OPD ortho-phenyl diamine) and a reading of the obtained coloration intensity with a reader having filters corresponding to wavelengths 490/650 nm (reader Emax Molecular Devithese, Sunnyvale, Calif.).
The inhibition of RHD5 antibody binding to insolubilized recombinant FVIII was measured according to the protocol described in point IV. The concentration of used RHD5 is equal to 2 μg/ml.

[3] = target: T1, human monoclonal anti-C1 domain of …; experiment: cell-based or functional assay

T1 sequence (VH, as listed by the source, chain 1 of 2): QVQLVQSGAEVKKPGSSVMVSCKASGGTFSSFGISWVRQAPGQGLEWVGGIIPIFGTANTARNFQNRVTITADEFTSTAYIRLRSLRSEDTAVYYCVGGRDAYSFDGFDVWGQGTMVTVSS
T1 sequence (VL, as listed by the source, chain 2 of 2): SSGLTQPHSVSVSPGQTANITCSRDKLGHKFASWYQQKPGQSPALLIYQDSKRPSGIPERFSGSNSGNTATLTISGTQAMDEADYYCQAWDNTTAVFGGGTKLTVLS

Kd [1]: 3.4 nM | koff [1]: 1.45e-05 s⁻¹ | kon [1]: 4260 M⁻¹ s⁻¹ | inhibition of binding at an equimolar ratio (%) [2]: 92% | molar ratio RHD5/18B6 giving 50% inhibition [2]: 2.5 molar ratio RHD5/18B6 | neutralisation of RHD5 inhibitory activity at an equimolar RHD5/18B6 ratio [3]: 50%
B1: anti-idiotypic antibody 18B6 (antibody, V domains shown)
VH: QVQLQQSGAELAKPGASVKMSCKASGYTFTTYWMHWIKQRPGQDLEWIGYINPTSGYTEYNQNFKDKATLTADKSSSTAYMQLNSLTSEDSAVYFCARSGAYYRYDDAMDSWGQGTSVTVSS
VL: QIVLSQSPAILSASPGEKVTMTCRASSSVSYMNWYQQKPGSSPKPWIYATSNLASGVPARFSGSGSGTSYSLTISRVEAEDAATYYCQQWSSNPPMLTFGAGTKLELK
notes: also called 18B6 anti-RHD5 clone
